# Source: paper doi:10.1101/2025.11.11.687647 (bioRxiv, 2025)
# Target: the molecule itself
# Assay: SEC
protein,measurement,value
"Mycobacterium tuberculosis pyruvate carboxylase (MtPC), full-length (enzyme) MFSKVLVANRGEIAIRAFRAAYELGVGTVAVYPYEDRNSQHRLKADESYQIGDIGHPVHAYLSVDEIVATARRAGADAIYPGYGFLSENPDLAAACAAAGISFVGPSAEVLELAGNKSRAIAAAREAGLPVLMSSAPSASVDELLSVAAGMPFPLFVKAVAGGGGRGMRRVGDIAALPEAIEAASREAESAFGDPTVYLEQAVINPRHIEVQILADNLGDVIHLYERDCSVQRRHQKVIELAPAPHLDAELRYKMCVDAVAFARHIGYSCAGTVEFLLDERGEYVFIEMNPRVQVEHTVTEEITDVDLVASQLRIAAGETLEQLGLRQEDIAPHGAALQCRITTEDPANGFRPDTGRISALRTAGGAGVRLDGSTNLGAEISPYFDSMLVKLTCRGRDLPTAVSRARRAIAEFRIRGVSTNIPFLQAVLDDPDFRAGRVTTSFIDERPQLLTARASADRGTKILNFLADVTVNNPYGSRPSTIYPDDKLPDLDLRAAPPAGSKQRLVKLGPEGFARWLRESAAVGVTDTTFRDAHQSLLATRVRTSGLSRVAPYLARTMPQLLSVECWGGATYDVALRFLKEDPWERLATLRAAMPNICLQMLLRGRNTVGYTPYPEIVTSAFVQEATATGIDIFRIFDALNNIESMRPAIDAVRETGSAIAEVAMCYTGDLTDPGEQLYTLDYYLKLAEQIVDAGAHVLAIKDMAGLLRPPAAQRLVSALRSRFDLPVHLHTHDTPGGQLASYVAAWHAGADAVDGAAAPLAGTTSQPALSSIVAAAAHTEYDTGLSLSAVCALEPYWEALRKVYAPFESGLPGPTGRVYHHEIPGGQLSNLRQQAIALGLGDRFEEIEEAYAGADRVLGRLVKVTPTSKVVGDLALALVGAGVSADEFASDPARFGIPESVLGFLRGELGDPPGGWPEPLRTAALAGRGAARPTAQLAADDEIALSSVGAKRQATLNRLLFPSPTKEFNEHREAYGDTSQLSANQFFYGLRQGEEHRVKLERGVELLIGLEAISEPDERGMRTVMCILNGQLRPVLVRDRSIASAVPAAEKADRGNPGHIAAPFAGVVTVGVCVGERVGAGQTIATIEAMKMEAPITAPVAGTVERVAVSDTAQVEGGDLLVVVS",stoichiometry N,4
